Test results reported in PMC6113376.

Tests used:
[1] = target: porcine GP2 isoform 1, incompletely deglycosylated under native conditions (pig); assay: static adhesion assay (bacteria on coated protein); porcine GP2 incubated in native conditions with (NE) or without (N) deglycosylation enzymes, coated; S. Typhimurium 5744 wild type and its fimH deletion mutant added
[2] = target: porcine GP2 isoform 2, incompletely deglycosylated under native conditions (pig); assay: as above

FimH of Salmonella Typhimurium wild type strain Tym5744 (from UniProt P37925 23-335) (natural protein)
percent decrease of binding against GP2 that was not digested [1]: 59%
percent decrease of binding against GP2 that was not digested [2]: 53%
